Measured values reported in patent US20230265179A1 (TWIST BIOSCIENCE, published 2023).

Legend:
[1] = target: T1, IL1RL2 over-expressed on Expi293 cells (UniProt Q9HB29 20-575, limits assumed); assay: flow cytometry titration on over-expressing Expi293 cells
T1 construct: whole, on cells; Target of the flow cytometry assay; MFI ratio is over-expressing cells over parent cells
T1 sequence (looked up): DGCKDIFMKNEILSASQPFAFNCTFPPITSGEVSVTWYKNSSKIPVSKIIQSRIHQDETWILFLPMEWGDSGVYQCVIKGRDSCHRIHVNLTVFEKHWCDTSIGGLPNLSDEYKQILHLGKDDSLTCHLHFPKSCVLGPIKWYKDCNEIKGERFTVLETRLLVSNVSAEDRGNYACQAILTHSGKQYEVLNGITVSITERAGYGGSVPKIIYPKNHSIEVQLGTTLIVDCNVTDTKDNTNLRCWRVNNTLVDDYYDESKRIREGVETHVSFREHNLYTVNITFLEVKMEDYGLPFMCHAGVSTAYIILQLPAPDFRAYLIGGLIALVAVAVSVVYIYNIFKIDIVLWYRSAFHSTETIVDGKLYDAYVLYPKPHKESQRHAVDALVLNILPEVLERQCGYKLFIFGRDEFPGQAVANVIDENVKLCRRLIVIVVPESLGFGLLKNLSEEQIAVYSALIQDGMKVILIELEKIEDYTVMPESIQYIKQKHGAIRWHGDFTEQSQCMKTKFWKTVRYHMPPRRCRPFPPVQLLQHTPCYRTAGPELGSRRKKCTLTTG
Description: (§1) All incubations and washes were in buffer containing PBS+1% BSA. MFI Ratio is defined by the mean fluorescence intensity (MFI) of the cytokine over-expressing Expi293 cell over the Expi293 parent cell. […] EC50 was calculated in GraphPad Prism.

[2] = target: T1, IL1RL2 over-expressed on Expi293 cells; assay: flow cytometry, over-expressing Expi293 vs parent cells, 100 nM antibody;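 note: ratio is mean fluorescence intensity on over-expressing Expi293 cells divided by that measured on parental Expi293 cells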
Description: as §1

IL1RL2 = target: T2, IL1RL2 (UniProt Q9HB29 20-335, limits assumed); assay: SPR (Carterra LSA), antibody immobilised, 1:1 model
T2 construct: Soluble analyte of the SPR runs
T2 sequence (looked up): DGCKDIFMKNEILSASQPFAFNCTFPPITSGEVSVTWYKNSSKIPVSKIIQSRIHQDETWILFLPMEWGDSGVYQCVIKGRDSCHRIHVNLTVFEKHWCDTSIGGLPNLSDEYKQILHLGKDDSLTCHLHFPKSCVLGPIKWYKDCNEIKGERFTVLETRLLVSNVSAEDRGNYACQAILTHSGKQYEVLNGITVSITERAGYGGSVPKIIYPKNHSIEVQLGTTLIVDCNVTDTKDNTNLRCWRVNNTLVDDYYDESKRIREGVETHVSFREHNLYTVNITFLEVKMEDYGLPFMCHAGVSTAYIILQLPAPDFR
Description: SPR experiments were performed on a Carterra LSA SPR biosensor equipped with a HC30M chip at 25° C. in HBS-TE. Antibodies were diluted to 10 μg/mL and amine-coupled to the sensor chip by EDC/NHS activation, followed by ethanolamine HCl quenching. Increasing concentrations of analyte were flowed over the sensor chip in HBS-TE with 0.5 mg/mL BSA with 5-minute association and 15-minute dissociation. Following each injection cycle the surface was regenerated with 2× 30-second injections of IgG elution buffer (Thermo). Data were analyzed in Carterra's Kinetics Tool software with 1:1 binding model.

IL1RL1 = target: T3, IL1RL1 (UniProt Q01638 19-556, limits assumed); assay: flow cytometry, 100 nM IgG on IL1RL1 over-expressing Expi293 cells; MFI over that of Expi293 parent cells
T3 construct: whole, on cells; The flow cytometry used 'cytokine over-expressing Expi293 cells' against Expi293 parent cells
T3 sequence (looked up): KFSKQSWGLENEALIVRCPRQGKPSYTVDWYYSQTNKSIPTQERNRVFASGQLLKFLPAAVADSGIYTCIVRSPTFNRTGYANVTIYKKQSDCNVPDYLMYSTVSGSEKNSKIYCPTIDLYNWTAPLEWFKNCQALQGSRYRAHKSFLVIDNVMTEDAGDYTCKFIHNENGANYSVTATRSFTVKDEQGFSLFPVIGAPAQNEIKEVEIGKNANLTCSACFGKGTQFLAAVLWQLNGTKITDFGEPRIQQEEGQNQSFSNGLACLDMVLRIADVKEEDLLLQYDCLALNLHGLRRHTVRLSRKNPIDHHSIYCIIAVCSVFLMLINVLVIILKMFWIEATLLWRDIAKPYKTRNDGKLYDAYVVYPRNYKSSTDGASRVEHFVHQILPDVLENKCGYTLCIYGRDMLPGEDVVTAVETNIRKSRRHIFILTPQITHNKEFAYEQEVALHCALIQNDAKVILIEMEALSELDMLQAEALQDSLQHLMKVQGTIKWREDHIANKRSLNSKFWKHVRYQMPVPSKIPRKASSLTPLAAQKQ
Description: as §1

Binder | EC50 [1] [nM] | 100 nM FACS (MFI Ratio) [2] | Kd (IL1RL2) [nM] | koff (IL1RL2) [s⁻¹] | kon (IL1RL2) [M⁻¹ s⁻¹] | 100 nM FACS (MFI Ratio) (IL1RL1) [MFI ratio]
IL1RL2-299 (antibody, V domains shown, IgG2) VH: EVQLLESGGGLVQPGGSLRLSCAASGFIFSRYAMSWVRQAPGKGLEWVSAISESGGNTYYADSVKGRFTISRDNSKNTLYLQMNSLRAEDTAVYYCARQRYPGGSGSYADYWGQGTLVTVSS VL: DIQMTQSPSSLSASVGDRVTITCRASQSISTDLNWYQQKPGKAPKLLIYGVSSLQSGVPSRFSGSGSGTDFTLTISSLQPEDFATYYCQQSHSTPFTFGGGTKVEIK | 2.25 | 19.2 | – | – | – | –
IL1RL2-12 (VHH, VHH-Fc based on IgG2 Fc) VHH: EVQLVESGGGLVQPGGSLRLSCAASGPMSSSAVMGWFRQAPGKEREFVAVVTRWSGARTVYADSVKGRFTISADNSKNTAYLQMNSLKPEDTAVYYCAVSQPLNYYTYYDPRRYDWGQGTLVTVSS | 0.528 | 33.8 | 12.1 | 0.000485 | 40200 | –
IL1RL2-187 (antibody, V domains shown, IgG2) VH: EVQLLESGGGLVQPGGSLRLSCAASGFTLSSYAMSWVRQAPGKGLEWVSSISSSGGYTGYADSVKGRFTISRDNSKNTLYLQMNSLRAEDTAVYYCAKSFSFFDYWGQGTLVTVSS VL: DIQMTQSPSSLSASVGDRVTITCRASQSISSYVNWYQQKPGKAPKLLIYGSSYLQSGVPSRFSGSGSGTDFTLTISSLQPEDFATYYCQQNNNWPTTFGQGTKVEIK | 2.26 | 45 | – | – | – | –
IL1RL2-300 (antibody, V domains shown, IgG2) VH: EVQLLESGGGLVQPGGSLRLSCAASGFTFSGYAMNWVRQAPGKGLEWVSTISGSGVSTYYADSVKGRFTISRDNSKNTLYLQMNSLRAEDTAVYYCAREQHLVEGDFDNWGQGTLVTVSS VL: DIQMTQSPSSLSASVGDRVTITCRTSQSISSYLNWYQQKPGKAPKLLIYAASSLQSGVPSRFSGSGSGTDFTLTISSLQPEDFATYYCQQSYNIPYTFGQGTKVEIK | 1.57 | 23.9 | – | – | – | –
IL1RL2-180 (antibody, V domains shown, IgG2) VH: EVQLLESGGGLVQPGGSLRLSCAASGFTFSDYDMSWVRQAPGKGLEWVSAIEGAGSDTYYADSVKGRFTISRDNSKNTLYLQMNSLRAEDTAVYYCARLAPEFDYWGQGTLVTVSS VL: DIQMTQSPSSLSASVGDRVTITCRASQSISSYVNWYQQKPGKAPKLLIYQNDKRPSGVPSRFSGSGSGTDFTLTISSLQPEDFATYYCQPSFYFPYAFGQGTKVEIK | 15.2 | 21.5 | – | – | – | –
IL1RL2-22 (VHH, VHH-Fc based on IgG2 Fc) VHH: EVQLVESGGGLVQPGGSLRLSCAASGRTFGSYAMGWFRQAPGKEREFVAAINWSGARTYYADSVKGRFTISADNSKNTAYLQMNSLKPEDTAVYYCAVSQPLNYYTYYDARRYDWGQGTLVTVSS | 3.02 | 15.4 | 3.59 | 0.000126 | 35000 | –
IL1RL1-375 (antibody, V domains shown) VH: EVQLLESGGGLVQPGGSLRLSCAASGFAFSSYAMSWVRQAPGKGLELVSAISGSGDTSYYADSVKGRFTISRDNSKNTLYLQMNSLRAEDTAVYYCARVRRWSNFDYWGQGTLVTVSS VL: DIQMTQSPSSLSASVGDRVTITCRASQSISRYLSWYQQKPGKAPKLLIYAGSKLQRGVPSRFSGSGSGTDFTLTISSLQPEDFATYYCQQTYSTPIAFGGGTKVEIK | – | – | – | – | – | 11.3
IL1RL2-285 (antibody, V domains shown, IgG2) VH: EVQLLESGGGLVQPGGSLRLSCAASGFTFSNFAMSWVRQAPGKGLEWVSTISGSGGSTSYADSVKGRFTISRDNSKNTLYLQMNSLRAEDTAVYYCAREKRSSGWYPHFDYWGQGTLVTVSS VL: DIQMTQSPSSLSASVGDRVTITCRASQTIGTYLNWYQQKPGKAPKLLIYGGSRLQSGVPSRFSGSGSGTDFTLTISSLQPEDFATYYCQQSYSTPYTFGGGTKVEIK | 618 | 214 | – | – | – | –
IL1RL1-377 (antibody, V domains shown) VH: EVQLLESGGGLVRPGGSLRLSCAASGFTFRNFAMSWVRQAPGKGLEWVSSISGSGDTTYYADSVKGRFTISRDNSKNTLYLQMNSLRAEDTAVYYCARHKRGRVAVAFPMDVWGQGTLVTVSS VL: DIQMTQSPSSLSASVGDRVTITCRASQNIGRYLNWYQQKPGKAPKLLIYGASTLQRGVPSRFSGSGSGTDFTLTISSLQPEDFATYYCQQSYSAPTFGGGTKVEIK | – | – | – | – | – | 1.21
IL1RL2-17 (VHH, VHH-Fc based on IgG2 Fc) VHH: EVQLVESGGGLVQPGGSLRLSCAASGRTFSTYDMGWFRQAPGKERELVASITFGGDTNYADSVKGRFTISADNSKNTAYLQMNSLKPEDTAVYYCADVNGDWGQGTLVTVSS | 11.2 | 15.6 | 1.45 | 0.00024 | 166000 | –
IL1RL2-5 (VHH, VHH-Fc based on IgG2 Fc) VHH: EVQLVESGGGLVQPGGSLRLSCAASGRTFDSYDMGWFRQAPGKERELVASITYLGRTNYADSVKGRFTISADNSKNTAYLQMNSLKPEDTAVYYCADVNGDWGQGTLVTVSS | 13.4 | 13.9 | 2.72 | 0.000343 | 126000 | –
IL1RL2-15 (VHH, VHH-Fc based on IgG2 Fc) VHH: EVQLVESGGGLVQPGGSLRLSCAASGRTFSTYDMGWFRQAPGKEREFVAVINYRGSTTYADSVKGRFTISADNSKNTAYLQMNSLKPEDTAVYYCADVNGDWGQGTLVTVSS | 0.622 | 14.4 | 4.13 | 0.000218 | 52700 | –
IL1RL2-302 (antibody, V domains shown, IgG2) VH: EVQLLESGGGLVQPGGSLRLSCAASGFPLSSYAMSWVRQAPGKGLEWVSLISGSGVSTYYADSVKGRFTISRDNSKNTLYLQMNSLRAEDTAVYYCARGWGAAEEWGQGTLVTVSS VL: DIQMTQSPSSLSASVGDRVTITCRASQRISNYLHWYQQKPGKAPKLLIYAASRLHSGVPSRFSGSGSGTDFTLTISSLQPEDFATYYCQQSHTIPYTFGQGTKVEIK | 1.1 | 192 | – | – | – | –
IL1RL2-298 (antibody, V domains shown, IgG2) VH: EVQLLESGGGLVQPGGSLRLSCAASGFTFPSYAMAWVRQAPGKGLEWVSAISGSGSSPYYADSVKGRFTISRDNSKNTLYLQMNSLRAEDTAVYYCAREKRSSGWYPHFDYWGQGTLVTVSS VL: DIQMTQSPSSLSASVGDRVTITCRASRSIDTYLNWYQQKPGKAPKLLIYGGSRLQSGVPSRFSGSGSGTDFTLTISSLQPEDFATYYCQQSYSTPPVTFGGGTKVEIK | 100 | 49.6 | – | – | – | –
IL1RL2-35 (VHH, VHH-Fc based on IgG2 Fc) VHH: EVQLVESGGGLVQPGGSLRLSCAASGRTFSTYDMGWFRQAPGKEREFVAAISWSGGSTNYADSVKGRFTISADNSKNTAYLQMNSLKPEDTAVYYCADVNGDWGQGTLVTVSS | 0.508 | 15.6 | 4.74 | 0.000593 | 125000 | –
IL1RL2-27 (VHH, VHH-Fc based on IgG2 Fc) VHH: EVQLVESGGGLVQPGGSLRLSCAASGGRFSTYDMGWFRQAPGKEREFVASIVWIGGRTYYADSVKGRFTISADNSKNTAYLQMNSLKPEDTAVYYCADVNGDWGQGTLVTVSS | 64.2 | 14 | 1.32 | 0.000143 | 108000 | –
IL1RL2-20 (VHH, VHH-Fc based on IgG2 Fc) VHH: EVQLVESGGGLVQPGGSLRLSCAASGRTGSTYDMGWFRQAPGKERELVAAISWRGGSTYYADSVKGRFTISADNSKNTAYLQMNSLKPEDTAVYYCADVNGDWGQGTLVTVSS | 9.03 | 11.6 | 3.28 | 0.000363 | 111000 | –
